# Data reported in paper PMC4519192, “In vitro Selection and Interaction Studies of a DNA Aptamer Targeting Protein A”.
# B1: PA#2/8[S1-58] 5'-fluorescein (structured_DNA)
# DNA: ATACCAGCTTATTCAATTAGCAACATGAGGGGGATAGAGGGGGTGGGTTCTCTCGGCT
# B2: PA#2/8[S1-58] 3'-biotin (structured_DNA)
# DNA: B1 DNA
# B3: PA#2/8 5'-fluorescein (structured_DNA)
# DNA: ATACCAGCTTATTCAATTAGCAACATGAGGGGGATAGAGGGGGTGGGTTCTCTCGGCTACAATCGTAATCAGTTAG
# B4: PA#2/8 3'-biotin (structured_DNA)
# DNA: B3 DNA
# B5: PA#2/8[S19-76] (structured_DNA)
# DNA: AGCAACATGAGGGGGATAGAGGGGGTGGGTTCTCTCGGCTACAATCGTAATCAGTTAG
# Legend:
# [1] = molecular target: T1, Protein A, native (Sigma P3838) (Staphylococcus aureus, UniProt P38507 37-477); assay: MST; 25 C, in solution; conditions: protein: native, label: 5'-fluorescein
# [2] = molecular target: T2, Protein A, recombinant (Sigma P7837) (UniProt P38507 37-327); assay: MST; 25 C, in solution; conditions: protein: recombinant, label: 5'-fluorescein
# [3] = molecular target: T3, Protein A, native biotinylated (Sigma P2165) (Staphylococcus aureus, UniProt P38507 37-477); assay: SPR; steady state; Protein A immobilized ~600 RU; conditions: tags: biotin, label: 5'-fluorescein
# [4] = molecular target: T2, Protein A, recombinant (Sigma P7837); assay: SPR; steady state; aptamer immobilized 1030 RU; conditions: label: 3'-biotin, predicted stem-loop
# [5] = molecular target: T3, Protein A, native biotinylated (Sigma …); assay: bead-based fluorescence binding; conditions: tags: biotin, label: 5'-fluorescein
# [6] = molecular target: T3, Protein A, native biotinylated (Sigma …); assay: SPR; kinetic 1:1 fit; ka 1.23e3 M-1s-1, kd 1.66e-3 s-1; conditions: tags: biotin, label: 5'-fluorescein
# [7] = molecular target: T3, Protein A, native biotinylated (Sigma …); assay: bead-based fluorescence binding; Protein A on streptavidin beads; conditions: tags: biotin, label: 5'-fluorescein
# [8] = molecular target: human thrombin (89223 Fluka) (human, UniProt P00734;P00734 328-363;364-622); assay: SPR
# [9] = molecular target: Protein G, recombinant (Pierce 21193) (group G Streptococci, UniProt P06654 228-352); assay: SPR; 1000 nM protein; conditions: label: 3'-biotin, predicted stem-loops, possible G4
# Chain of Protein G, recombinant (Pierce 21193) (P06654 228-352): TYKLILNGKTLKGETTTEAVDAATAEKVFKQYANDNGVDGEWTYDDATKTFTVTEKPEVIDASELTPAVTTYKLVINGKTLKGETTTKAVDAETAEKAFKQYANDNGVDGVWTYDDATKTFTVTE
# [10] = molecular target: T2, Protein A, recombinant (Sigma P7837); assay: SPR; single-cycle mode; aptamer 516 RU; conditions: label: 3'-biotin
# [11] = molecular target: T2, Protein A, recombinant (Sigma P7837); assay: SPR; steady state; aptamer immobilized 1086 RU; avidity; conditions: label: 3'-biotin
# [12] = molecular target: T1, Protein A, native (Sigma P3838); assay: SPR; steady state; aptamer immobilized 1158 RU; avidity; conditions: label: 3'-biotin
binder,measurement,setting,value
B1,Kd,[1]; predicted stem-loop,222 ± 60.5 nM
same,Kd,[2]; predicted stem-loop,94.7 ± 64.6 nM
same,Kd,[3]; predicted stem-loop,1920 ± 250 nM
B2,Kd,[4],287 ± 16.2 nM
ATACCAGCTTATTCAATTAGCAACATGA (structured_DNA) [PA#2/8[S1-28]],binding result,[5],no binding
ATACCAGCTTATTCAATTAGCAACATGAGGGGGATAGAGGGGG (structured_DNA) [PA#2/8[S1-43]],Kd,[1]; predicted stem-loop,214 ± 46.1 nM
same,Kd,[2]; predicted stem-loop,579 ± 123 nM
B3,Kd,[1],668 ± 224 nM
same,Kd,[2],927 ± 404 nM
same,Kd,[3],2220 ± 180 nM
same,Kd,[6],1350 nM
same,Kd,[7],1060 ± 200 nM
B4,binding result,[8],no binding
same,binding result,[9],no binding
same,Kd,[10],148 ± 7.6 nM
same,Kd,[11],172 ± 14 nM
same,Kd,[12],84 ± 5 nM
B5,binding result,[5],no binding
ATACCAGCTTATTCAATTAGCAACATGAGGGGGAT (structured_DNA) [PA#2/8[S1-35]],binding result,[5],no binding
GATAGAGGGGGTGGGTTCTCTCG (structured_DNA) [PA#2/8KR23],binding result,[5],no binding
AGCAACATGAGGGGGATAGAGGGGGTGGGTTCTCTCGGCT (structured_DNA) [PA#2/8KR40],binding result,[5],no binding
